Measured values: patent US7981863B2, “Treatment of Parkinson's disease with PDGF” (Neuronova AB, priority 2001, dated 2011)

Key:
[1] = system: rat neural stem cells from the adult lateral ventricle wall; assay: Expansion of rat neural stem cell cultures, total cell counts at 7 days; assay type: cell-based; conditions: different concentrations, 7 days; FIG. 24, FIG. 25
Protocol: Neural stem cells were prepared according to the attached protocol. Cells were grown in serum-free medium, subcloned and used between passage 6 and 10. If not otherwise mentioned the experiments consisted of triplets for analysis and were independently repeated at least 3 times.
Basal Medium: Neurobasal medium (NB, Gibco BRL) & B27 supplement (Gibco BRL).
Growth Medium: NB, B27 supplement+20 ng/ml of FGF-2 (R&D Systems)+20 ng/ml EGF (R&D Systems)+2 μg/ml heparin (Sigma, Germany).
Cells were plated in Growth medium at 10.000 cells/ml and after 2 days switched to the experimental condition. Cells were kept under the experimental condition for 7 days.
Adult female Fischer-344 rats (3-4 months; Charles River, Germany) were killed via cervical dislocation, the brains of each rat were removed and stored at 4° C. in DPBS (PAN, Germany) with 4.5 g/L glucose (Merck, Germany) (DPBS/glu). Overlying meninges and blood vessels were removed. Ependymal zone including subependymal/subventricular zone form the lateral wall of the lateral ventricle were aseptically removed. […] Live cells were counted by trypan blue exclusion assay in a hemocytometer. […]
The culture medium containing floating neurospheres was collected in a 15 ml centrifuge tube and centrifuged at 800 rpm. […] An aliquot was counted by trypan blue exclusion assay in a hemocytometer to determine the amount of live and dead cells. […]

Healthy Rats = assay: ICV infusion in healthy rats, BrdU / NeuN labelling; assay type: in vivo, rat
Protocol: Male rats (12 hours light/dark regime; feeding and drinking ad libitum; 5 animals in standard cage) were infused (Alzet minipumps) in the left lateral ventricle with human recombinant PDGF-BB for 7 days at a daily dose of 36 ng/day (8 animals/group). Human recombinant BDNF (brain derived neurotrophic factor) was used as a positive control (Pencea V et al., J. Neurosci Sep. 1 (2001), 21(17):6706-17). Bromodeoxyuridine (BrdU) was also included in the infusion vehicle (artificial cerebrospinal fluid) to enable measurement of proliferation by quantitation of BrdU incorporation in the DNA. Animals were sacrificed at 7 (proliferation) or 28 days (neurogenesis) after start of treatment and brains were dissected and prepared for sectioning and immunohistochemistry (Pencea V et al., J. Neurosci Sep. 1 (2001), 21(17):6706-17).
Proliferation was measured by BrdU incorporation and diaminobenzidine (DAB) staining of HRP conjugated secondary antibodies (FIG. 7). Cells were counted in a phase contrast microscope. Neural phenotype was assessed by staining for neuronal marker NeuN by immunocytochemistry using a fluorescence readout. The secondary antibodies were labeled with FITC or Alexa Fluor568. In double staining analyses designed to measure neurogenesis, BrdU and NeuN were quantitated by fluorescence (above) and counting of cells was done in a confocal microscope. For further experimental details, see Pencea V et al., J. Neurosci Sep. 1 (2001), 21(17):6706-17. A number of brain regions were analysed.

6-OHDA Lesioned Rats = assay: i.c.v. infusion in 6-OHDA lesioned rats, BrdU / NeuN labelling; assay type: in vivo, rat; conditions: for numbers of BrdU labelled cells in the denervated striatum: compared to PBS infusion
Protocol: Animal handling and surgical procedures were carried out according to the ethical and regulatory permits set forth by Jordbruksverket and Lund University. Adult female Sprague-Dawley rats (B&K Universal AB) rats weighing 220-250 g, were housed in pairs with a 12 h light-dark cycle with free access to food and water. To lesion the substantia nigra, rats were fixed into a stereotaxic frame and 6-OHDA ([…] in 0.02% ascorbate saline, Sigma) was injected at a rate of 1 μl/min in 2 deposits of 2 and 2.5 μl into the right ascending mesostriatal forebrain bundle at the following coordinates: 4.4 mm caudal to bregma, 1.2 mm lateral to midline, 7.8 mm below dura; 4.0 mm caudal, 0.8 mm lateral, 8.0 mm below dura, respectively (Paxinos and Watson, 1998). Three weeks after 6-OHDA injections, the completeness of the lesion was assessed with the amphetamine-induced rotation test. D-methylamphetamine (2.5 mg, i.p.) was injected 5 min prior to placing the rat in an automated rotormeter bowl that measured the number of rotations over 90 min.
Before implantation, an Alzet Model 2002 osmotic minipump (200 μl; flow rate: 0.5 μl/h, 12 μl/day) was prefilled with 200 μl of compound solution (see below) and placed in a NaCl (0.9%) solution warmed in water bath (37° C.) 36 hrs before implantation. Rats were anesthetized with halothane in a mixture of nitrous oxide/oxygen (70:30) and maintained with 2-3% halothane. For implantation, rats were placed in a stereotaxic frame and the cannula of the Alzet Brain Infusion kit II was placed into the right lateral ventricle (coordinates: AP=−0.3 mm posterior bregma, L=1.5 mm lateral to satura sagittalis, 4.5 mm the dura; Paxinos and Watson, 1998), and secured to the skull with screws and dental cement. The minipump was then placed subcutaneously in the mid-scapular region. The scalp was treated with lidocaine gel before suturing. Twelve days after insertion, the rats were briefly anaesthetized with halothane in order to remove the pump. Removed pumps had the remaining solution volume and weight recorded.
The effects of infused PDGF-BB and BDNF following 6-OHDA lesions were investigated at 2 different time points: at 12 days or 5 weeks after minipump insertion. Rats receiving human PDGF-BB (order # 220-BB-050; 50 μg, R&D Systems) each had 36 ng/d of PDGF dissolved in 0.1 M PBS (3 μg/ml). Rats receiving human recombinant BDNF (order # 248-BD-025; 25 μg, R&D Systems) each had 12 ng/d of BDNF dissolved in 0.1 M PBS (1 μg/ml). BrdU was co-administered with the compound solution in the minipumps by dissolving it into the 0.1 M PBS medium. Control rats received only BrdU/PBS infusions.
Brain tissue was obtained by anesthetizing the rat and transcardially perfusing with 0.9% saline followed by 4% paraformaldehyde (PFA). Brains were stored PFA for 2 hours, then transferred to 20% sucrose PBS and sectioned coronally on a sledge microtome at 30 μm thickness. Free-floating sections were stored in Walter's antifreeze solution at 4° C. until staining.
Following blocking, incubation of monoclonal rat anti-BrdU antibody (Harlan Sera Lab, UK) in 2% blocking solution occurred at a dilution of 1:100 at 4° C. for 36 hrs. The sections were then incubated with biotin-horse-[…] antibody (1:200) (Vector, CA) in 2% blocking solution for 2 hr and visualized with DAB-NiCl Vectastain Elite kit. The procedure for doubling labeling of BrdU with NeuN or TH was similar, except that a monoclonal rat anti-BrdU antibody (1:100; Sigma, Sweden) was incubated either with a monoclonal mouse anti-NeuN antibody (1:100; Chemicon, USA) or with a monoclonal anti-TH antibody (1:1000; Pelfreeze) in the appropriate 2% blocking solution in the dark for 36 to 48 hrs. For immunofluorescent visualization, sections were incubation in secondary antibodies: Cy3-conjugated donkey anti-rat (1:200; Jackson ImmunoResearch, PA) for BrdU; a biotinylated horse anti-mouse antibody (1:200; BA2001, Vector, CA) for NeuN; and a FITC-conjugated goat anti-rat (1:200;) for TH. […]

B1: VEGF-A121: VEGF isoform that can only bind to the Flk-1 receptor (protein)
chain: APMAEGGGQNHHEVVKFMDVYQRSYCHPIETLVDIFQEYPDEIEYIFKPSCVPLMRCGGCCNDEGLECVPTEESNITMQIMRIKPHQGQHIGEMSFLQHNKCECRPKKDRARQEKCDKPRR
- stimulation of proliferation of neural stem cell cultures [1]: significant stimulation

B2: VEGF-A165: VEGF isoform that can bind to flk-1, flt-1 and neuropilin-1 (protein)
chain: APMAEGGGQNHHEVVKFMDVYQRSYCHPIETLVDIFQEYPDEIEYIFKPSCVPLMRCGGCCNDEGLECVPTEESNITMQIMRIKPHQGQHIGEMSFLQHNKCECRPKKDRARQENPCGPCSERRKHLFVQDPQTCKCSCKNTDSRCKARQLELNERTCRCDKPRR
- stimulation of proliferation of neural stem cell cultures [1]: significant stimulation

B3: BDNF: Human recombinant BDNF (brain derived neurotrophic factor), used as a positive control (protein, UniProt P23560 19-247, looked up)
Neurotrophic factor BDNF …: APMKEANIRGQGGLAYPGVRTHGTLESVNGPKAGSRGLTSLADTFEHVIEELLDEDQKVRPNEENNKDADLYTSRVMLSSQVPLEPPLLFLLEEYKNYLDAANMSMRVRRHSDPARRGELSVCDSISEWVTAADKKTAVDMSGGTVTVLEKVPVSKGQLKQYFYETKCNPMGYTKEGCRGIDKRHWNSQCRTTQSYVRALTMDSKKRIGWRFIRIDTSCVCTLTIKRGR
- Cell count (BrdU, proliferation) along the lateral ventricle wall (Healthy Rats; 7-day group, ICV infusion 7 days, 36 ng/day, mean of two sections, mean +/- sem): 177 +/−15
- number of proliferating cells in the subventricular zone (Healthy Rats; 28-day group): slight effect
- neurogenesis in the striatum (Healthy Rats; 28-day group, in comparison to vehicle treated animals): significantly increase neurogenesis
- BrdU positive cells in the dentate gyrus, the CA1 and the alveus (Healthy Rats; 28-day group, in comparison to vehicle-treated animals): no significant effect
- BrdU positive cells in the striatum (Healthy Rats; 28-day group, cells counted in 300 × 300 μm squares): 39.8 ± 7.3 (p < 0.01 to vehicle, ANOVA)
- absolute number of BrdU/NeuN double labelled cells in the striatum (6-OHDA Lesioned Rats; 5 weeks, FIG. 15): significantly more neurons
- numbers of BrdU labelled cells in the denervated striatum (6-OHDA Lesioned Rats; 12 days after infusion, PDGF 36 ng/d, BDNF 12 ng/d): significantly elevated
- numbers of BrdU labelled cells in the lesioned substantia nigra (6-OHDA Lesioned Rats; 12 days after infusion, compared to PBS treatment): significantly elevated
- BrdU cells in the striatum co-labelled with NeuN (proportion of newly generated neurons) (6-OHDA Lesioned Rats; Week 5, no statistically significant differences): 16.6%
- numbers of BrdU labelled cells in the denervated striatum (6-OHDA Lesioned Rats; at 5 weeks): significant increases
